Results on 114 variants are retold here after the RNAGym collection of RNA variant scans (doi:10.7554/elife.80360).

B1: Hammerhead Ribozyme (parent)
chain: ACCGGAUGUGCUUUCCGGUCUGAUGAGUCCGUGAGGACGAAACAG

The variants in the data set derive from B1. The data set is described as follows: self-cleavage, relative activity (ratio to wild type); higher = more cleavage; co-transcriptional.
As for ACCGGAUGUGCUUUCCGGUCUGAUGAGUCCAUGAGGACGGAACAG, the self-cleavage turned out to be 0.417. In the case of ACCGGAUGUGCUUUCCGGUCUUAUGAGUCCGUGAGGACGAAACAA it was 0.345. In the case of ACCGGAUGUGCCUUCCGGGCUGAUGAGUCCGUGAGGACGAAACAG it was 0.371; in that of ACCGGAUGUGCUUUCCGGUCUGAUGAGUCCGUGGGGACGAAAUAG, 0.393; in that of ACCCGAUGUGCUUUCCGGUCUGAUUAGUCCGUGAGGACGAAACAG, 0.289.

On to ACCGGCUGUGCUUUCCGGUCUGAUGAGUCCGUGAGGACGAAGCAG, for which the self-cleavage stood at 0.329. Regarding ACCGGAUGUGCUUUCCCGUCUGAUGAGUCCGUGAGGACUAAACAG, the self-cleavage was found to be 0.33.

For the variant ACCGGAUGUGCUUUCCGGUCUGAUGAGUCAGUGAGGACGAAACAC, the self-cleavage was 0.454. Turning to ACCGCAUGUGCUUUCCGGUCUGACGAGUCCGUGAGGACGAAACAG, the self-cleavage stood at 0.625. With ACCGGAUGUGCUAUCCGGUCUGAUGAGUCCGUGAAGACGAAACAG the figure was 0.89. Consider ACCGGAUGUGCUUUCGGGUCUGAUGAGUCCGUGAGGACGCAACAG, for which the self-cleavage came out at 0.372.

ACCGGAUGGGCUUUCCGGUCUGAUGAGUCCGUGAGGGCGAAACAG: the self-cleavage came to 0.983. With ACCGGAUAUGCUUUCCGGUCUGAUGAGUCCGAGAGGACGAAACAG the figure was 1.14; with ACCGGAUAUGCUUUCCGGUCUGAUGAGUCCGGGAGGACGAAACAG, 1.09; with ACCGGAUGUGCUUGCCGGUCUGAUGAGUCCUUGAGGACGAAACAG, 0.51. For ACCGGAUGUGCUUUCCGGUCUGGUGAGUCCUUGAGGACGAAACAG, the self-cleavage came out at 0.448. ACCGGAUGUGUUUUCCGGUCUGAUGGGUCCGUGAGGACGAAACAG: the self-cleavage stood at 0.335. Consider ACCGGAUAUGCUUUCCGGUCUGACGAGUCCGUGAGGACGAAACAG, for which the self-cleavage was 0.979. With ACCGGAUGUGCUUUCCGGUCUGAUGACUCCGUGAGGACGAAACGG the figure was 0.988; with ACCGGAUGUGCUUUCCGGCCUGAUGAGUCCGUAAGGACGAAACAG, 0.579. Turning to ACCGGAUGAGCUUUCCCGUCUGAUGAGUCCGUGAGGACGAAACAG, the self-cleavage turned out to be 0.449. With ACCGGAUGUGGUUUCCGCUCUGAUGAGUCCGUGAGGACGAAACAG the figure was 0.426.

With ACCGGAUGUGCUUUCCGGUCUGAGGCGUCCGUGAGGACGAAACAG, the self-cleavage turned out to be 0.373. With ACCGGAUGUGCUUUCCGGUCUGAUGGGUCCGUUAGGACGAAACAG, the self-cleavage worked out at 0.344. In the case of ACCGGAUGUGCUUUCCGGUCUGAUGGGUCCGUAAGGACGAAACAG, the self-cleavage is 0.401. In the case of ACCGGAUGUGCUAUCCGGUCUGAUGAAUCCGUGAGGACGAAACAG, the self-cleavage came out at 0.873. Consider ACCGCAUGUGCUUUCCGGUCUGAUGACUCCGUGAGGACGAAACAG, for which the self-cleavage is 0.354. With ACCGGAUGUGCUUUCCGGUCUGAUGAUUCCGUGAGGCCGAAACAG the figure was 0.308; with ACCGGAUGUGCUUUCGGGUCUGAUGAGUCUGUGAGGACGAAACAG, 0.899.

With ACCGGAUGUGCAUUCCGGUUUGAUGAGUCCGUGAGGACGAAACAG, the self-cleavage turned out to be 0.431. With ACCGGAUGUGCUUUCCGGUCUGAUGAGUCCGUGAGGACGUAACAU the figure was 0.398.

ACCGGCUGUGCUUUCCGGUCUGAUGAGUCCGUGAGGCCGAAACAG: the self-cleavage turned out to be 0.475. In the case of ACCGGAUGUGCCUUCCCGUCUGAUGAGUCCGUGAGGACGAAACAG it was 0.446; in that of CCCGGAUGUGCUUUCCGGUCUGAUGAGUCCGUGAGGACGAAACAG, 0.466. With ACCGGAUGUGCUUUGCGGCCUGAUGAGUCCGUGAGGACGAAACAG the figure was 0.232; with ACCGAAUGUGCUUUCCGAUCUGAUGAGUCCGUGAGGACGAAACAG, 0.47; with ACCGGAUGUGCUUUCCGGUCCGAAGAGUCCGUGAGGACGAAACAG, 1.13.

Take ACCGGACGUGCUUUCCGGGCUGAUGAGUCCGUGAGGACGAAACAG: the self-cleavage was found to be 0.413. As for ACCGGAUGUGCUUUCGGGUCUGAUGAGUCCGUGAGGAUGAAACAG, the self-cleavage amounted to 0.619.

As to ACCGGAUGUGCUUUCCGGUCUGAUGAGUCCGUGAUGACGAAACAA, the self-cleavage was determined as 0.473. With ACCGGAUGUGCUUUUCGGUCUGAUGAGUCCGUGGGGACGAAACAG the figure was 0.813; with ACCGGAUGUGCUUUCCGGUCUGAUGAGUCCGUGAGGCCGAAACCG, 0.28; with ACCGGAUGUGCUUUCCGGACUGAUGACUCCGUGAGGACGAAACAG, 0.401. In the case of ACCGGAUGUGCUCUCCGGUCUGAUGAGUCCGUGAGGACGACACAG it was 0.247; in that of AUCGGAUGUGCUUUCCGGUAUGAUGAGUCCGUGAGGACGAAACAG, 0.63. With UCCGGAUGUGCUUUCCAGUCUGAUGAGUCCGUGAGGACGAAACAG the figure was 0.421; with ACCGGAUGUUCUUUCCGGUCUGAUGAGCCCGUGAGGACGAAACAG, 1.18; with ACAGGAGGUGCUUUCCGGUCUGAUGAGUCCGUGAGGACGAAACAG, 0.7. With ACCGGAUGUGCUUUCCGGUCUGAUGAGUGCGCGAGGACGAAACAG, the self-cleavage amounted to 0.708. With ACCGGAUGUGCUUUCCGGUCUGAUGAGUCCGUGAGGAUGAAAGAG the figure was 0.321. In the case of ACCAGAUGUGCUUUCCGGUCUGAUGAGUCCGCGAGGACGAAACAG it was 0.516. In the case of ACCGCAUGUGCUUUCCGGUCUGAUGAGUCAGUGAGGACGAAACAG it was 0.623; in that of ACCAGAUGUGCUUUCCGGUCUGAUGAGUCCGUGAGGUCGAAACAG, 0.378; in that of ACCGGAUAUGCUUUCCGGUCUGAUGAGUCCGUGAGGCCGAAACAG, 1.06. On to ACCGGAUGUGCUUUCCGGUCUGAUAAGUCCGUGAGGAAGAAACAG, for which the self-cleavage came to 0.379. In the case of ACCGGAUGUGCUUUCCGGUCUGAUGAGUCCGUGAUGACGAAUCAG it was 0.344. As to ACCGGAUGUGCUUUCCGGUCUCAUGAGUCCUUGAGGACGAAACAG, the self-cleavage amounted to 0.309. With ACCGGAUAUGCUUUCCGGUCUGAUUAGUCCGUGAGGACGAAACAG the figure was 0.353; with ACCGGAUGUGCUUUCUGGUCUGAUGAGUCCGUGACGACGAAACAG, 0.434; with ACAGGAUGUGCUUUCAGGUCUGAUGAGUCCGUGAGGACGAAACAG, 0.596.

As to ACCCGAUGUGCUUUCCGGUCUGAUGCGUCCGUGAGGACGAAACAG, the self-cleavage was 0.289.

As to ACCGGAUGUGCUUUCCGGUCUGAUGAGUCCGUGAGGAAGAAACCG, the self-cleavage worked out at 0.405.

Turning to ACCGGAUGUGCUUUCCGGUCUGAUGAGUCCGUGAGGACGAACUAG, the self-cleavage amounted to 0.38. With ACCGGAUGUGCUUUCCGGCCUGAUGAGUCCGUGAGGACCAAACAG the figure was 0.251.

Consider ACCGGAUGUGCUCCCCGGUCUGAUGAGUCCGUGAGGACGAAACAG, for which the self-cleavage stood at 0.862. In the case of ACCGGAUGUGCUCACCGGUCUGAUGAGUCCGUGAGGACGAAACAG it was 0.621; in that of ACCGGAUGUGCUUUCCGGCCUGAUGAGUCCGUGAGGACGAAAAAG, 0.284. With ACCGGAUGUGCUUUCCGGUCUGCUGAGUCCGUCAGGACGAAACAG the figure was 0.479; with ACCGGAUGUGCUUUCAGGUCUGAUGAGUCCGUGAGGCCGAAACAG, 0.898.

ACAGGAUGUGCUUUCCGGUCUGAUGAGUCCGUGAGGACGAAACCG: the self-cleavage was 0.418. Regarding ACCCGAUGUGCUUUCCGGUGUGAUGAGUCCGUGAGGACGAAACAG, the self-cleavage was 0.266.

With ACCGGAUGUGCUUGCCGGUCUGAUGAGUCCGUGAGGGCGAAACAG, the self-cleavage was found to be 0.782. In the case of ACCGGAUGUGCUUUCCGGUCUGAUCAGUCCGUGUGGACGAAACAG it was 0.327; in that of ACCGGAUGUGCUUUCCGGCCUGAUGAGUCCGUGAGGACGAAACAC, 0.519; in that of ACCGGAUUUGCUUUCCUGUCUGAUGAGUCCGUGAGGACGAAACAG, 0.964. In the case of ACCGGAUGUGCUUUCCGUUCUGAUGAGUCGGUGAGGACGAAACAG it was 0.493; in that of ACCGGAUGUGCUUUCCGGUAUGAUGAGUCCGUGAGGACGAUACAG, 0.335; in that of ACCGGAUGUCCUUUCCGGUCUGAUGAGUCCGUGAGGACGAAACUG, 0.57. For ACCGGAUGUGCUUUCCGGUCUGAUGAGUCCGGGAGGACGAAAGAG, the self-cleavage came to 0.303. In the case of ACCGGAUGUGCUUUCCGGUCUGACGAGUCCGUGAGGACGAAGCAG, the self-cleavage was 0.228. Consider ACCGGAUGUGCUGUCCGGUCUGAUGAGUCCGUGAGGACGAAAUAG, for which the self-cleavage is 0.596. As to ACCGGAUGUGCUUUCCGGUAUGAUGAGUCCGUGAGGACGAAAGAG, the self-cleavage amounted to 0.25. In the case of ACCGGAUGUGCUUUCCGGUCUAAUGAGUCCGUGAGGACGAACCAG it was 0.335; in that of ACCGGAUGUGCUUUCCGGUCUGAUGAGUCCGUAAGGUCGAAACAG, 0.727. With UCCGGAUGUGCUUUCCGGUCUGAUGACUCCGUGAGGACGAAACAG, the self-cleavage came to 0.317. With AGCGGAUGUGCUUUCCGGUCUGAUGAGUCUGUGAGGACGAAACAG the figure was 0.354; with ACCGGAUGUGCUUUCCGGCCUGAAGAGUCCGUGAGGACGAAACAG, 0.776. In the case of ACCGGCUGUGCUUUCCGGUCUGAUGAGUCCGUGAGUACGAAACAG it was 0.34. With ACCGGAUGUGCUUUCCGGUCUCAUGAGUCCGUGAGGCCGAAACAG the figure was 0.286. ACCGGAUGUGCUUGCCGGUCCGAUGAGUCCGUGAGGACGAAACAG: the self-cleavage was determined as 0.812. ACCGGAUGUGCUUUCCGGUCUGAUGAAUCCGUGAGGACGAAAAAG: the self-cleavage came out at 0.347. For GCCGGAUGUGCUUUCCGGUCUGAUGAGUCCGUGUGGACGAAACAG, the self-cleavage is 1.47.

Consider ACCGGAUGUGCUUUCCGGUCUGAUGAGUCCGUGAUGAGGAAACAG, for which the self-cleavage came to 0.374. Take ACCGGAUGUGCUUUCCGGUCUGAUGAGUCCGUGAUGAAGAAACAG: the self-cleavage amounted to 0.404. Turning to ACCGGAAGUGAUUUCCGGUCUGAUGAGUCCGUGAGGACGAAACAG, the self-cleavage came to 1.55.

On to ACCGGAUGUGCUUUCCGGGCUGAUGAGUCCGUGAGGCCGAAACAG, for which the self-cleavage was found to be 0.331. Take ACCGGGCGUGCUUUCCGGUCUGAUGAGUCCGUGAGGACGAAACAG: the self-cleavage was found to be 1.29. With ACCGGAUGUGCUUUCCGGUCUGACGAGUCCGUGAGCACGAAACAG the figure was 0.383; with ACCGGAUGUGCUUUCCGGUCUGACGAGUCCGUGAGUACGAAACAG, 0.541; with ACCGGAUGGGCUUUCCGGUCUGAUGAGUCCGUGAUGACGAAACAG, 0.64. With ACCGGAUGUGCGUUCCGGUCUGAUGAGUCCGUGAGGACGAAACUG the figure was 0.565; with ACCGGAUGUGCUUUCCGGUCUGAUGAUUUCGUGAGGACGAAACAG, 0.316. In the case of ACCGGAUGUGCUUUCCGGUCCGAUUAGUCCGUGAGGACGAAACAG it was 0.342; in that of ACCGGAUGUGCUUACCGGUCUGAUGAGUCCGUGAGGACGAACCAG, 0.296; in that of ACCGGACGUGCUUUCCUGUCUGAUGAGUCCGUGAGGACGAAACAG, 0.625. As for ACCGGAUGUGCUUUCCGGUCUGAUUAGUCCGCGAGGACGAAACAG, the self-cleavage came out at 0.268. In the case of ACCGGAUGGGCUUUCCGGUCUGAUGAGUCCGUGAGGACAAAACAG it was 0.307. ACCGGAUGAGCUUUCCGGUCUGAUAAGUCCGUGAGGACGAAACAG: the self-cleavage is 0.345. With ACCGAAUGUGCCUUCCGGUCUGAUGAGUCCGUGAGGACGAAACAG the figure was 1.07; with ACCGGAUGUGCUUUCCGCGCUGAUGAGUCCGUGAGGACGAAACAG, 0.224.

ACCGGAUGUGCUUUCAGGUCUGAUGAGACCGUGAGGACGAAACAG: the self-cleavage was determined as 0.434. With ACCGGAUGUGCUUUCCGAUCUGAUGAGUCCGUGAGGACGAAACAA the figure was 0.354. With ACCGGAUGUGCUUUCCGGUUUGAUGAGUACGUGAGGACGAAACAG the figure was 0.296.

For the variant GCCGGAUGUGCUUUCCGGUCGGAUGAGUCCGUGAGGACGAAACAG, the self-cleavage is 0.812.
